One assay has as its target T1, cyBCMA (cynomolgus, UniProt A0A2K5UD97 1-53).
T1 construct: Soluble analyte in SPR; construct not described; also called cyno BCMA
Nature of the assay: SPR, immobilised IgG, 37° C. (In general: SPR reads the build-up and loss of mass on a sensor chip optically.)

In another assay the target is T2, human BCMA (human, UniProt Q02223 1-54).
T2 construct: also called huBCMA; hBCMA
T2 sequence: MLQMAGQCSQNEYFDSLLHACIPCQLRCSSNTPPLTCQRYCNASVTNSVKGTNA
Put plainly: SPR, immobilised IgG, 37° C.

T1 sequence (A0A2K5UD97 entry or part of it): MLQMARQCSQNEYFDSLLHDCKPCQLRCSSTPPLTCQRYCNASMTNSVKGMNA

B1: L3.PY/H2.YQ (antibody, V domains shown)
VH: EVQLLESGGGLVQPGGSLRLSCAASGFTFGSYAMTWVRQAPGKGLEWVSAISYQGGNTFYADSVKGRFTISRDNSKNTLYLQMNSLRAEDTAVYYCARVSPIASGMDYWGQGTLVTVSS
VL: EIVLTQSPGTLSLSPGERATLSCRASQSVSSSYLAWYQQKPGQAPRLLIYGASSRATGIPDRFSGSGSGTDFTLTISRLEPEDFAVYYCQHYPYPPSFTFGQGTKVEIK
notes: IgG in the assay
Take B1: the “T½” value in the assay with cyBCMA was found to be 1.86 min; in the assay with human BCMA it was 7.41 min.

B2: L3.PY/H3.AE (antibody, V domains shown)
VH: EVQLLESGGGLVQPGGSLRLSCAASGFTFGSYAMTWVRQAPGKGLEWVSAISGSGGNTFYADSVKGRFTISRDNSKNTLYLQMNSLRAEDTAVYYCARVSPIAAEMDYWGQGTLVTVSS
VL: EIVLTQSPGTLSLSPGERATLSCRASQSVSSSYLAWYQQKPGQAPRLLIYGASSRATGIPDRFSGSGSGTDFTLTISRLEPEDFAVYYCQHYPYPPSFTFGQGTKVEIK
notes: IgG in the assay
Take B2: the “T½” value with cyBCMA stood at 2.29 min; with human BCMA it was 8.32 min.

B3: L3.PY/L1.AH/H2.HA (antibody, V domains shown)
VH: EVQLLESGGGLVQPGGSLRLSCAASGFTFGSYAMTWVRQAPGKGLEWVSAISHAGGNTFYADSVKGRFTISRDNSKNTLYLQMNSLRAEDTAVYYCARVSPIASGMDYWGQGTLVTVSS
VL: EIVLTQSPGTLSLSPGERATLSCRASQSVSAHYLAWYQQKPGQAPRLLIYGASSRATGIPDRFSGSGSGTDFTLTISRLEPEDFAVYYCQHYPYPPSFTFGQGTKVEIK
notes: IgG in the assay
In the case of B3, the “T½” value with cyBCMA was 2.63 min; with human BCMA, 6.37 min.

B4: L3.PY/L1.AH/H3.AQ (antibody, V domains shown)
VH: EVQLLESGGGLVQPGGSLRLSCAASGFTFGSYAMTWVRQAPGKGLEWVSAISGSGGNTFYADSVKGRFTISRDNSKNTLYLQMNSLRAEDTAVYYCARVSPIAAQMDYWGQGTLVTVSS
VL: EIVLTQSPGTLSLSPGERATLSCRASQSVSAHYLAWYQQKPGQAPRLLIYGASSRATGIPDRFSGSGSGTDFTLTISRLEPEDFAVYYCQHYPYPPSFTFGQGTKVEIK
notes: IgG in the assay
For the molecule B4, the figures for the “T½” value with cyBCMA and in the assay with human BCMA were 2.9 min and 5.85 min, respectively.

B5: L3.PY/L1.AH/H2.LT (antibody, V domains shown)
VH: EVQLLESGGGLVQPGGSLRLSCAASGFTFGSYAMTWVRQAPGKGLEWVSAISLTGGNTFYADSVKGRFTISRDNSKNTLYLQMNSLRAEDTAVYYCARVSPIASGMDYWGQGTLVTVSS
VL: EIVLTQSPGTLSLSPGERATLSCRASQSVSAHYLAWYQQKPGQAPRLLIYGASSRATGIPDRFSGSGSGTDFTLTISRLEPEDFAVYYCQHYPYPPSFTFGQGTKVEIK
notes: IgG in the assay
On to B5, for which the “T½” value was determined as 3.91 min with cyBCMA and 9.38 min with human BCMA.

B6: L3.PY/H3.YA (antibody, V domains shown)
VH: EVQLLESGGGLVQPGGSLRLSCAASGFTFGSYAMTWVRQAPGKGLEWVSAISGSGGNTFYADSVKGRFTISRDNSKNTLYLQMNSLRAEDTAVYYCARVSPIYAGMDYWGQGTLVTVSS
VL: EIVLTQSPGTLSLSPGERATLSCRASQSVSSSYLAWYQQKPGQAPRLLIYGASSRATGIPDRFSGSGSGTDFTLTISRLEPEDFAVYYCQHYPYPPSFTFGQGTKVEIK
notes: IgG in the assay
Regarding B6, the “T½” value in the assay with cyBCMA worked out at 2.14 min; in the assay with human BCMA, 9.82 min.

B7: L3.PY/L1.AH/H3.YA (antibody, V domains shown)
VH: EVQLLESGGGLVQPGGSLRLSCAASGFTFGSYAMTWVRQAPGKGLEWVSAISGSGGNTFYADSVKGRFTISRDNSKNTLYLQMNSLRAEDTAVYYCARVSPIYAGMDYWGQGTLVTVSS
VL: EIVLTQSPGTLSLSPGERATLSCRASQSVSAHYLAWYQQKPGQAPRLLIYGASSRATGIPDRFSGSGSGTDFTLTISRLEPEDFAVYYCQHYPYPPSFTFGQGTKVEIK
notes: IgG in the assay
With B7, the “T½” value in the assay with cyBCMA came to 2.2 min; in the assay with human BCMA, 7.73 min.

B8: L3.PY/L1.AH/H2.QL (antibody, V domains shown)
VH: EVQLLESGGGLVQPGGSLRLSCAASGFTFGSYAMTWVRQAPGKGLEWVSAISGSGGNTFYADQLKGRFTISRDNSKNTLYLQMNSLRAEDTAVYYCARVSPIASGMDYWGQGTLVTVSS
VL: EIVLTQSPGTLSLSPGERATLSCRASQSVSAHYLAWYQQKPGQAPRLLIYGASSRATGIPDRFSGSGSGTDFTLTISRLEPEDFAVYYCQHYPYPPSFTFGQGTKVEIK
notes: IgG in the assay
For the molecule B8, the “T½” value in the assay with cyBCMA was 1.21 min; with human BCMA, 7.22 min.

B9: L3.PY/L1.AH/H2.QR (antibody, V domains shown)
VH: EVQLLESGGGLVQPGGSLRLSCAASGFTFGSYAMTWVRQAPGKGLEWVSAISGSGGNTFYADQRKGRFTISRDNSKNTLYLQMNSLRAEDTAVYYCARVSPIASGMDYWGQGTLVTVSS
VL: EIVLTQSPGTLSLSPGERATLSCRASQSVSAHYLAWYQQKPGQAPRLLIYGASSRATGIPDRFSGSGSGTDFTLTISRLEPEDFAVYYCQHYPYPPSFTFGQGTKVEIK
notes: IgG in the assay
For the molecule B9, the “T½” value with cyBCMA is 2.35 min; with human BCMA it was 6.39 min.

B10: L3.PY/L1.AH/H2.DY (antibody, V domains shown)
VH: EVQLLESGGGLVQPGGSLRLSCAASGFTFGSYAMTWVRQAPGKGLEWVSAIDYSGGNTFYADSVKGRFTISRDNSKNTLYLQMNSLRAEDTAVYYCARVSPIASGMDYWGQGTLVTVSS
VL: EIVLTQSPGTLSLSPGERATLSCRASQSVSAHYLAWYQQKPGQAPRLLIYGASSRATGIPDRFSGSGSGTDFTLTISRLEPEDFAVYYCQHYPYPPSFTFGQGTKVEIK
notes: IgG in the assay
In the case of B10, the “T½” value with cyBCMA came out at 2.56 min; in the assay with human BCMA, 7.62 min.

B11: L3.PY/H3.TAQ (antibody, V domains shown)
VH: EVQLLESGGGLVQPGGSLRLSCAASGFTFGSYAMTWVRQAPGKGLEWVSAISGSGGNTFYADSVKGRFTISRDNSKNTLYLQMNSLRAEDTAVYYCTRVSPIAAQMDYWGQGTLVTVSS
VL: EIVLTQSPGTLSLSPGERATLSCRASQSVSSSYLAWYQQKPGQAPRLLIYGASSRATGIPDRFSGSGSGTDFTLTISRLEPEDFAVYYCQHYPYPPSFTFGQGTKVEIK
notes: IgG in the assay; also called P6E01 L3PY/H3TAQ
B11: the “T½” value with cyBCMA is 2.64 min; in the assay with human BCMA it was 10.1 min.

B12: L3.PY/H3.AQ (antibody, V domains shown)
VH: EVQLLESGGGLVQPGGSLRLSCAASGFTFGSYAMTWVRQAPGKGLEWVSAISGSGGNTFYADSVKGRFTISRDNSKNTLYLQMNSLRAEDTAVYYCARVSPIAAQMDYWGQGTLVTVSS
VL: EIVLTQSPGTLSLSPGERATLSCRASQSVSSSYLAWYQQKPGQAPRLLIYGASSRATGIPDRFSGSGSGTDFTLTISRLEPEDFAVYYCQHYPYPPSFTFGQGTKVEIK
notes: IgG in the assay
With B12, the “T½” value amounted to 2.14 min in the assay with cyBCMA and 6.69 min with human BCMA.

B13: L3.PY/L1.AH/H2.YQ (antibody, V domains shown)
VH: EVQLLESGGGLVQPGGSLRLSCAASGFTFGSYAMTWVRQAPGKGLEWVSAISYQGGNTFYADSVKGRFTISRDNSKNTLYLQMNSLRAEDTAVYYCARVSPIASGMDYWGQGTLVTVSS
VL: EIVLTQSPGTLSLSPGERATLSCRASQSVSAHYLAWYQQKPGQAPRLLIYGASSRATGIPDRFSGSGSGTDFTLTISRLEPEDFAVYYCQHYPYPPSFTFGQGTKVEIK
notes: IgG in the assay
With B13, the “T½” value with cyBCMA was determined as 2.68 min; with human BCMA, 6 min.

B14: L3.PY/L1.AH/H3.AE (antibody, V domains shown)
VH: EVQLLESGGGLVQPGGSLRLSCAASGFTFGSYAMTWVRQAPGKGLEWVSAISGSGGNTFYADSVKGRFTISRDNSKNTLYLQMNSLRAEDTAVYYCARVSPIAAEMDYWGQGTLVTVSS
VL: EIVLTQSPGTLSLSPGERATLSCRASQSVSAHYLAWYQQKPGQAPRLLIYGASSRATGIPDRFSGSGSGTDFTLTISRLEPEDFAVYYCQHYPYPPSFTFGQGTKVEIK
notes: IgG in the assay
As to B14, the “T½” value in the assay with cyBCMA was found to be 3.25 min; with human BCMA it was 6.7 min.
